Values of other authors, collected in PMC4289615.

Molecular target: IL-2Rβγ (intermediate-affinity IL-2 receptor) (Homo sapiens) (UniProt P14784)
UniProt P14784, sequence (P14784 27-240, chain 1 of 2): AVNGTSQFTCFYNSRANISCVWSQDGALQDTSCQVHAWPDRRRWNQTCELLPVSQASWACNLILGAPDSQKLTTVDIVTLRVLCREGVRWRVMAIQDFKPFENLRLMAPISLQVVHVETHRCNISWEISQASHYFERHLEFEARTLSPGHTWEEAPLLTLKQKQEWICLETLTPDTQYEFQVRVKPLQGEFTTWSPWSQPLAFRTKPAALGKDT
UniProt P14784, sequence (P31785 23-262, chain 2 of 2, further chain): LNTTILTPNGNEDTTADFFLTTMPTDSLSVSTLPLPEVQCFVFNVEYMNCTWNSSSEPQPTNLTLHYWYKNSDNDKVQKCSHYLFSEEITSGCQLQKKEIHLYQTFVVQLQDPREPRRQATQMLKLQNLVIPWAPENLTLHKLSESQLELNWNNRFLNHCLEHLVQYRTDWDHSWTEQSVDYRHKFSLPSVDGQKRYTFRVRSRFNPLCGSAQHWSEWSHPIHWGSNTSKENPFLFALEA

IL-2, sequence (P60568 21-153): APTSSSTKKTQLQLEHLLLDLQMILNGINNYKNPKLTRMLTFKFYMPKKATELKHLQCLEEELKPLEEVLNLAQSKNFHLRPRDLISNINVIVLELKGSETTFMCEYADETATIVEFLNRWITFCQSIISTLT

IL-2 (from UniProt P60568)
Kd: 1 nM
